According to patent publication US20180155451A1 (published 2018):
Where two headings read alike, the source gives them in different places.

T1: FcgRIIb (human, UniProt P31994 43-217)
T1 construct: extracellular domain; Expressed in FreeStyle293 cells and purified; used as analyte in Biacore; also called FcγRIIb; CD32B; not shown: His tag attached to the C terminus
T1 sequence (looked up): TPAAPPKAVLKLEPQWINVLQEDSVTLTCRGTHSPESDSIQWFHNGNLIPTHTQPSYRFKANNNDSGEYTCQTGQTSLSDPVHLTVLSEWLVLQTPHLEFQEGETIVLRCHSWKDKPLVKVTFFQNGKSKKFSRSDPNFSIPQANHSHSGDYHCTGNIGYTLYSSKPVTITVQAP

T2: FcgRIIa R (human, UniProt P12318 34-217)
T2 construct: extracellular domain; also called FcγRIIa R; FcγRIIa type R; not shown: His tag attached to the C terminus
T2 sequence (looked up): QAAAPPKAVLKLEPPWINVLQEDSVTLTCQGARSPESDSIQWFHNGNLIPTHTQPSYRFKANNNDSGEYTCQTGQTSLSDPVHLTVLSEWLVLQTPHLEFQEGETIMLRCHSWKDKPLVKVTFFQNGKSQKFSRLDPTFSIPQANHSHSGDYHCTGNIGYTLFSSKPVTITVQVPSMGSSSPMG

T3: FcgRIIa H (human, UniProt P12318 34-217)
T3 construct: extracellular domain; also called FcγRIIa H; FcγRIIa type H; not shown: His tag attached to the C terminus
T3 sequence (looked up): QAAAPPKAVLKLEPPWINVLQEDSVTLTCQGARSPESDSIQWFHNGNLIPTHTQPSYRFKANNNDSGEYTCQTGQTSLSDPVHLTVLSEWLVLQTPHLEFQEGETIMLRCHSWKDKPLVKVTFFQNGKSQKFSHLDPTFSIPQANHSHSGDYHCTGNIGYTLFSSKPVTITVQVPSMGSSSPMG


Key:
Test in all cases: SPR (Biacore), antibody captured on chip, FcgR extracellular domain as analyte
[1] = biological target: T1, FcgRIIb
Method: (§1) Analysis of interaction between obj ective antibody and the FcγR was carried out using Biacore T100 (GE Healthcare), Biacore T200, Biacore A100, and Biacore 4000. HBS-EP+ (GE Healthcare) was used as the running buffer, and the measurement temperature was set to 25° C. Chips produced by immobilizing the antigen peptide by the amine coupling method to a Series S sensor Chip CM5 (GE Healthcare), chips produced by allowing preliminarily biotinylated antigen peptides to interact with and immobilize onto a Series S Sensor Chip SA (certified) (GE Healthcare), chips produced by immobilizing Protein L (ACTIGEN, BioVision) to Series S Sencor Chip CM5 (GE Healthcare), or chips produced by immobilizing Protein A/G (Thermo Scientific) to Series S Sencor Chip CM5 (GE Healthcare) were used. Antibodies of interest were captured onto these chips, and allowed to interact to each FcγR diluted with running buffer. To regenerate and repeatedly use the chip, the antibodies captured onto the chip were washed off by reacting 10 mM glycine-HCl, pH 1.5.

[2] = biological target: T2, FcgRIIa R
Method: as §1

[3] = biological target: T4, FcgRIIIa V (human, UniProt P08637 17-208)
T4 construct: extracellular domain; also called FcγRIIIa V; not shown: His tag attached to the C terminus
T4 sequence (P08637 17-208 F176V limits assumed): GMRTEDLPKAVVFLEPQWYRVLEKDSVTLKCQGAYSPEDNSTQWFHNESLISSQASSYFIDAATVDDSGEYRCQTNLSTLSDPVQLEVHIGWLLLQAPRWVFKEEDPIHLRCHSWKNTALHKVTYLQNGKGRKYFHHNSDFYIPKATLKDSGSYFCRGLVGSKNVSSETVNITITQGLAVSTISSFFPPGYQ
Method: as §1

[4] = biological target: T5, FcgRIIIa F (human, UniProt P08637 17-208)
T5 construct: extracellular domain; also called FcγRIIIa F; not shown: His tag attached to the C terminus
T5 sequence (P08637 17-208): as the sequence (P08637 17-208 F176V limits assumed) above, with V160F counted along it
Method: as §1

[5] = biological target: T3, FcgRIIa H
Method: as §1

[6] = biological target: T6, FcgRIa (human, UniProt P12314 16-292)
T6 construct: extracellular domain; Expressed in FreeStyle293 cells and purified; used as analyte in Biacore; also called FcγRIa; FcγRI; not shown: His tag attached to the C terminus
T6 sequence (P12314 16-292): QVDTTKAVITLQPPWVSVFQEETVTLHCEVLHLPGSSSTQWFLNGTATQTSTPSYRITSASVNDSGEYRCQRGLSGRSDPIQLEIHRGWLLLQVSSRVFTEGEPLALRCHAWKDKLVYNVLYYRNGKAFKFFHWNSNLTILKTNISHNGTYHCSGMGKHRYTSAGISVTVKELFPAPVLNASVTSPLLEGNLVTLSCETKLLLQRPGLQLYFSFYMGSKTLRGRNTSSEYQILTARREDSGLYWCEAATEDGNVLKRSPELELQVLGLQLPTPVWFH
Method: as §1

[7] = biological target: T1, FcgRIIb; remark: listed apart in the source
Method: (§2) H240-Kn113 (SEQ ID NO: 92) resulting from introduction of Y234E and Y235N into H240-Kn072, H240-Kn115 (SEQ ID NO: 93) resulting from introduction of S239M into H240-Kn072, and H240-Kn125 (SEQ ID NO: 94) resulting from introduction of Y235Q and S239M into H240-Kn072 were prepared according to the method described in Reference Example 1.
as §1

[8] = biological target: T2, FcgRIIa R; remark: listed apart in the source
Method: as §2, §1

[9] = biological target: T4, FcgRIIIa V; remark: listed apart in the source
Method: as §2, §1

[10] = biological target: T5, FcgRIIIa F; remark: listed apart in the source
Method: as §2, §1

[11] = biological target: T3, FcgRIIa H; remark: listed apart in the source
Method: as §2, §1

[12] = biological target: T6, FcgRIa; remark: listed apart in the source
Method: as §2, §1

[13] = biological target: T1, FcgRIIb; remark: listed apart in the source
Method: (§3) Specifically, H240-Kn120 (SEQ ID NO: 99) resulting from introduction of S239M into H240-Kn067 and H240-Kn126 (SEQ ID NO: 100) resulting from introduction of Y235Q into H240-Kn120 were prepared according to the method described in Reference Example 1. […] Those described above were assayed for the binding to each FcgR according to the method described in Reference Example 8.
as §1

[14] = biological target: T2, FcgRIIa R; remark: listed apart in the source
Method: as §3, §1

[15] = biological target: T4, FcgRIIIa V; remark: listed apart in the source
Method: as §3, §1

[16] = biological target: T5, FcgRIIIa F; remark: listed apart in the source
Method: as §3, §1

[17] = biological target: T3, FcgRIIa H; remark: listed apart in the source
Method: as §3, §1

[18] = biological target: T6, FcgRIa; remark: listed apart in the source
Method: as §3, §1

Binder	Kd [1] [nM]	Kd [2] [nM]	Kd [3] [nM]	Kd [4] [nM]	Kd [5] [nM]	Kd [6] [nM]	Kd [7] [nM]	Kd [8] [nM]	Kd [9] [nM]	Kd [10] [nM]	Kd [11] [nM]	Kd [12] [nM]	Kd [13] [nM]	Kd [14] [nM]	Kd [15] [nM]	Kd [16] [nM]	Kd [17] [nM]	Kd [18] [nM]
H240-Kn061/H240-Hl071/L73-k0 (antibody, human IgG1, kappa, Heterodimerized anti-EREG IgG1: L234Y/L235Y/G236W/H268D/S298A in Kn061, K326D/A330M/K334E in Hl071) heavy 1: QDQLVQSGAEVKKPGASVKVSCKASGFNIKDTYIQWVRQAPGQGLEWMGRIDPLRKQTKYREKFEGRVTITADTSTNTAYMELSSLRSEDTAVYYCVRSGREFDYWGQGTLVTVSSASTKGPSVFPLAPSSKSTSGGTAALGCLVKDYFPEPVTVSWNSGALTSGVHTFPAVLQSSGLYSLSSVVTVPSSSLGTQTYICNVNHKPSNTKVDKKVEPKSCDKTHTCPPCPAPEYYWGPSVFLFPPKPKDTLMISRTPEVTCVVVDVSDEDPEVKFNWYVDGVEVHNAKTKPREEQYNATYRVVSVLTVLHQDWLNGKEYKCKVSNKALPAPIEKTISKAKGQPREPQVCTLPPSRDELTKNQVSLWCLVKGFYPSDIAVEWESNGQPENNYKTTPPVLDSDGSFFLYSKLTVDKSRWQQGNVFSCSVMHEALHNHYTQKSLSLSP heavy 2: QDQLVQSGAEVKKPGASVKVSCKASGFNIKDTYIQWVRQAPGQGLEWMGRIDPLRKQTKYREKFEGRVTITADTSTNTAYMELSSLRSEDTAVYYCVRSGREFDYWGQGTLVTVSSASTKGPSVFPLAPSSKSTSGGTAALGCLVKDYFPEPVTVSWNSGALTSGVHTFPAVLQSSGLYSLSSVVTVPSSSLGTQTYICNVNHKPSNTKVDKKVEPKSCDKTHTCPPCPAPELLGGPSVFLFPPKPKDTLMISRTPEVTCVVVDVSHEDPEVKFNWYVDGVEVHNAKTKPREEQYNSTYRVVSVLTVLHQDWLNGKEYKCKVSNDALPMPIEETISKAKGQPREPQVYTLPPSRCELTKNQVSLSCAVKGFYPSDIAVEWESNGQPENNYKTTPPVLDSDGSFFLVSKLTVDKSRWQQGNVFSCSVMHEALHNHYTQKSLSLSP light: DIQMTQSPSSLSASVGDRVTITCRASQDIHKYIAWYQQKPGQAPRLLIQYTSTLQPGVPSRFSGSGSGTDYTFTISSLQPEDIATYYCLQYEQLRTFGGGTKVEIKRTVAAPSVFIFPPSDEQLKSGTASVVCLLNNFYPREAKVQWKVDNALQSGNSQESVTEQDSKDSTYSLSSTLTLSKADYEKHKVYACEVTHQGLSSPVTKSFNRGEC	1200	350	1.8	5.1	280	0.14												
H240-Kn033/H240-Hl033/L73-k0 (antibody, human IgG1, kappa, Anti-epiregulin (EREG) IgG1 control with knobs-into-holes alterations only (Y349C/T366W in the knob chain; D356C/T366S/L368A/Y407V in the hole chain); also called H240-Kn033/H240-HI033/L73-k0) heavy 1: not shown heavy 2: not shown light: DIQMTQSPSSLSASVGDRVTITCRASQDIHKYIAWYQQKPGQAPRLLIQYTSTLQPGVPSRFSGSGSGTDYTFTISSLQPEDIATYYCLQYEQLRTFGGGTKVEIKRTVAAPSVFIFPPSDEQLKSGTASVVCLLNNFYPREAKVQWKVDNALQSGNSQESVTEQDSKDSTYSLSSTLTLSKADYEKHKVYACEVTHQGLSSPVTKSFNRGEC	4200	1000	390	2600	930	0.25	4200	1000	390	2600	930	0.25	4200	1000	390	2600	930	0.25
H240-Kn072/H240-Hl076/L73-k0 (antibody, human IgG1, kappa, Heterodimerized anti-EREG IgG1: D270E introduced into both H chains of H240-Kn061/H240-Hl071/L73-k0) heavy 1: QDQLVQSGAEVKKPGASVKVSCKASGFNIKDTYIQWVRQAPGQGLEWMGRIDPLRKQTKYREKFEGRVTITADTSTNTAYMELSSLRSEDTAVYYCVRSGREFDYWGQGTLVTVSSASTKGPSVFPLAPSSKSTSGGTAALGCLVKDYFPEPVTVSWNSGALTSGVHTFPAVLQSSGLYSLSSVVTVPSSSLGTQTYICNVNHKPSNTKVDKKVEPKSCDKTHTCPPCPAPEYYWGPSVFLFPPKPKDTLMISRTPEVTCVVVDVSDEEPEVKFNWYVDGVEVHNAKTKPREEQYNATYRVVSVLTVLHQDWLNGKEYKCKVSNKALPAPIEKTISKAKGQPREPQVCTLPPSRDELTKNQVSLWCLVKGFYPSDIAVEWESNGQPENNYKTTPPVLDSDGSFFLYSKLTVDKSRWQQGNVFSCSVMHEALHNHYTQKSLSLSP heavy 2: QDQLVQSGAEVKKPGASVKVSCKASGFNIKDTYIQWVRQAPGQGLEWMGRIDPLRKQTKYREKFEGRVTITADTSTNTAYMELSSLRSEDTAVYYCVRSGREFDYWGQGTLVTVSSASTKGPSVFPLAPSSKSTSGGTAALGCLVKDYFPEPVTVSWNSGALTSGVHTFPAVLQSSGLYSLSSVVTVPSSSLGTQTYICNVNHKPSNTKVDKKVEPKSCDKTHTCPPCPAPELLGGPSVFLFPPKPKDTLMISRTPEVTCVVVDVSHEEPEVKFNWYVDGVEVHNAKTKPREEQYNSTYRVVSVLTVLHQDWLNGKEYKCKVSNDALPMPIEETISKAKGQPREPQVYTLPPSRCELTKNQVSLSCAVKGFYPSDIAVEWESNGQPENNYKTTPPVLDSDGSFFLVSKLTVDKSRWQQGNVFSCSVMHEALHNHYTQKSLSLSP light: DIQMTQSPSSLSASVGDRVTITCRASQDIHKYIAWYQQKPGQAPRLLIQYTSTLQPGVPSRFSGSGSGTDYTFTISSLQPEDIATYYCLQYEQLRTFGGGTKVEIKRTVAAPSVFIFPPSDEQLKSGTASVVCLLNNFYPREAKVQWKVDNALQSGNSQESVTEQDSKDSTYSLSSTLTLSKADYEKHKVYACEVTHQGLSSPVTKSFNRGEC	5700	710	1	2.6	130	0.1	5700	710	1	2.6	130	0.1						
